Laboratory results as given in PMC4857094.

target: circularly permutated RBD of PKN1 (PKN1-WT) in the RhoA/B/C FRET sensors; experiment: FRET or BRET; intramolecular single-chain sensor (PKN1 RBD, mVenus, Cerulean3, RhoGTPase); normalized mean YFP/CFP ratio change of whole live HUVEC after Thrombin (1 U/ml) at t = 110 sec

Row | mean maximal FRET ratio change after Thrombin [%] | Substance
1 | 42 | RhoC-WT in the RhoC FRET sensor (from UniProt P08134 1-193) (natural protein)
2 | 122 | RhoB-WT in the RhoB FRET sensor (from UniProt P62745 1-196) (natural protein)
3 | 32 | RhoA-WT in the RhoA FRET sensor (from UniProt P61586 1-193) (natural protein)

target: circularly permutated RBD of PKN1 (PKN1-WT) in the RhoA/B/C FRET sensors; experiment: FRET or BRET; intramolecular single-chain sensor (PKN1 RBD, mVenus, Cerulean3, RhoGTPase); average basal YFP/CFP ratio in resting live primary human EC (HUVEC), 18 hours after microporation

Row | Substance | basal YFP/CFP ratio
4 | RhoC-G14V in the RhoC FRET sensor (from UniProt P08134 1-193) (natural protein) | 6.2
5 | RhoB-G14V in the RhoB FRET sensor (from UniProt P62745 1-196) (natural protein) | 6.5

Other lines, results leading:

Row | basal YFP/CFP ratio | Substance
6 | 8.1 | RhoA-Q63L in the RhoA FRET sensor (from UniProt P61586 1-193) (natural protein)
7 | 6.8 | RhoC-Q63L in the RhoC FRET sensor (from UniProt P08134 1-193) (natural protein)
